Results reported in PMC9352680, “A comprehensive thermodynamic model for RNA binding by the Saccharomyces cerevisiae Pumilio protein PUF4”.

Molecular target: T1, PUF4 RNA-binding domain (Saccharomyces cerevisiae, UniProt P25339 537-888)
T1 sequence: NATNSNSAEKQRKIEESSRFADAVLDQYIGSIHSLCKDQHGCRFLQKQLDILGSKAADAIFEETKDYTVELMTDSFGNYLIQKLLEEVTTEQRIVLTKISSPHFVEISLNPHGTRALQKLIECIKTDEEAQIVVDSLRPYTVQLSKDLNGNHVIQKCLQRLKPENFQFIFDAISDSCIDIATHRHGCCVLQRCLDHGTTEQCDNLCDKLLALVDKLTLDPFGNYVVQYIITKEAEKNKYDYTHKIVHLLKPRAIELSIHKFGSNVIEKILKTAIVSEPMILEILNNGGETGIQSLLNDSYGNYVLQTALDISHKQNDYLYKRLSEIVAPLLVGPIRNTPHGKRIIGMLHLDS
Test: Mg; RNA-MaP; 20 mM Na-HEPES pH 7.4, 30 mM KOAc, 0.75 mM MgCl2, 0.1% Tween-20, 5% glycerol, 0.1 mg/mL BSA, 2 mM DTT; 25 C; 0.0125-409.6 nM protein
Settings: tags: N-His6-TEV cleaved; C-SNAP kept, Cy3B-labelled; label: tethered on chip by stalled RNA polymerase

B1: Ib_S1_P3E.1_K3.1_C3.1_H3.1_[A4G]_A3.1_[A6C]_F3.1_T3.1 (ssRNA)
RNA: UCUCUUUGUGUCUAUCUCUU
Kd: 983 nM

B2: Ib_S1_P3E.1_K3.1_C3.1_H3.1_[A4C]_A3.1_[A6T]_F3.1_T3.1 (ssRNA)
RNA: UCUCUUUGUCUUUAUCUCUU
Kd: > 2300 nM

B3: Ib_S1_P3E.1_K3.1_C3.1_H3.1_[A4G]_A3.1_[A6T]_F3.1_T3.1 (ssRNA)
RNA: UCUCUUUGUGUUUAUCUCUU
Kd: 549 nM

B4: Ib_S1_P3E.1_K3.1_C3.1_H3.1_[A4G]_A3.1_[A6G]_F3.1_T3.1 (ssRNA)
RNA: UCUCUUUGUGUGUAUCUCUU
Kd: 178 nM

B5: Ic_S2_P4E.1_K4.1_C4.1_H4.1_A4.1_[T5G]_[A6T]_[T7A]_F4.1_[A9T]_T4.1 (ssRNA)
RNA: UUUGAUUAAUAUGAUAUCGUUCUUUCUUGUAGUAUUUUCUUUCUCGAUAUCAUAUUAAUCUUU
Kd: 26.4 nM

B6: Ic_S2_P4E.1_K4.1_C4.1_H4.1_A4.1_[T5C]_[A6G]_[T7C]_F4.1_[T8G]_[A9T]_T4.1 (ssRNA)
RNA: UUUGAUUAAUAUGAUAUCGUUCUUUCUUGUACGCGUUUCUUUCUCGAUAUCAUAUUAAUCUUU
Kd: 332 nM

B7: Ic_S2_P4E.1_K4.1_C4.1_H4.1_A4.1_[T5C]_[A6C]_[T7A]_F4.1_[T8C]_T4.1 (ssRNA)
RNA: UUUGAUUAAUAUGAUAUCGUUCUUUCUUGUACCACAUUCUUUCUCGAUAUCAUAUUAAUCUUU
Kd: 162 nM

B8: Ic_S2_P4E.1_K4.1_C4.1_H4.1_A4.1_[T5C]_[A6C]_[T7C]_F4.1_[T8A]_[A9T]_T4.1 (ssRNA)
RNA: UUUGAUUAAUAUGAUAUCGUUCUUUCUUGUACCCAUUUCUUUCUCGAUAUCAUAUUAAUCUUU
Kd: 81.4 nM

B9: Ic_S2_P4E.1_K4.1_C4.1_H4.1_A4.1_[T5C]_[A6G]_F4.1_[A9T]_T4.1 (ssRNA)
RNA: UUUGAUUAAUAUGAUAUCGUUCUUUCUUGUACGUUUUUCUUUCUCGAUAUCAUAUUAAUCUUU
Kd: 19.6 nM

B10: Ic_S2_P4E.1_K4.1_C4.1_H4.1_A4.1_[T5C]_[A6C]_[T7G]_F4.1_[T8C]_[A9C]_T4.1 (ssRNA)
RNA: UUUGAUUAAUAUGAUAUCGUUCUUUCUUGUACCGCCUUCUUUCUCGAUAUCAUAUUAAUCUUU
Kd: 736 nM

B11: Ic_S2_P4E.1_K4.1_C4.1_H4.1_A4.1_[T5C]_[A6G]_[T7C]_F4.1_[T8C]_[A9T]_T4.1 (ssRNA)
RNA: UUUGAUUAAUAUGAUAUCGUUCUUUCUUGUACGCCUUUCUUUCUCGAUAUCAUAUUAAUCUUU
Kd: 81.6 nM

B12: Ic_S2_P4E.1_K4.1_C4.1_H4.1_A4.1_[T5C]_[A6G]_[T7C]_F4.1_[T8A]_[A9T]_T4.1 (ssRNA)
RNA: UUUGAUUAAUAUGAUAUCGUUCUUUCUUGUACGCAUUUCUUUCUCGAUAUCAUAUUAAUCUUU
Kd: 235 nM

B13: Ic_S2_P4E.1_K4.1_C4.1_H4.1_A4.1_[T5C]_[A6G]_[T7C]_F4.1_[T8C]_T4.1 (ssRNA)
RNA: UUUGAUUAAUAUGAUAUCGUUCUUUCUUGUACGCCAUUCUUUCUCGAUAUCAUAUUAAUCUUU
Kd: 22.8 nM

B14: Ic_S2_P4E.1_K4.1_C4.1_H4.1_A4.1_[T5C]_[A6C]_[T7G]_F4.1_[T8A]_[A9C]_T4.1 (ssRNA)
RNA: UUUGAUUAAUAUGAUAUCGUUCUUUCUUGUACCGACUUCUUUCUCGAUAUCAUAUUAAUCUUU
Kd: 936 nM

B15: Ic_S2_P4E.1_K4.1_C4.1_H4.1_A4.1_[T5C]_[A6C]_[T7C]_F4.1_[T8C]_[A9G]_T4.1 (ssRNA)
RNA: UUUGAUUAAUAUGAUAUCGUUCUUUCUUGUACCCCGUUCUUUCUCGAUAUCAUAUUAAUCUUU
Kd: 595 nM

B16: Ic_S2_P4E.1_K4.1_C4.1_H4.1_A4.1_[T5C]_[A6C]_[T7C]_F4.1_[T8G]_[A9G]_T4.1 (ssRNA)
RNA: UUUGAUUAAUAUGAUAUCGUUCUUUCUUGUACCCGGUUCUUUCUCGAUAUCAUAUUAAUCUUU
Kd: 844 nM

B17: Ic_S2_P4E.1_K4.1_C4.1_H4.1_A4.1_[T5C]_[A6G]_F4.1_[T8A]_T4.1 (ssRNA)
RNA: UUUGAUUAAUAUGAUAUCGUUCUUUCUUGUACGUAAUUCUUUCUCGAUAUCAUAUUAAUCUUU
Kd: 125 nM

B18: Ic_S2_P4E.1_K4.1_C4.1_H4.1_A4.1_[T5C]_[A6C]_[T7C]_F4.1_T4.1 (ssRNA)
RNA: UUUGAUUAAUAUGAUAUCGUUCUUUCUUGUACCCUAUUCUUUCUCGAUAUCAUAUUAAUCUUU
Kd: 1.46 nM

B19: Ic_S2_P4E.1_K4.1_C4.1_H4.1_A4.1_[T5G]_[A6T]_[T7A]_F4.1_T4.1 (ssRNA)
RNA: UUUGAUUAAUAUGAUAUCGUUCUUUCUUGUAGUAUAUUCUUUCUCGAUAUCAUAUUAAUCUUU
Kd: 2.26 nM

B20: Ic_S2_P4E.1_K4.1_C4.1_H4.1_A4.1_[T5C]_[A6C]_[T7G]_F4.1_[T8C]_[A9T]_T4.1 (ssRNA)
RNA: UUUGAUUAAUAUGAUAUCGUUCUUUCUUGUACCGCUUUCUUUCUCGAUAUCAUAUUAAUCUUU
Kd: 154 nM

B21: Ic_S2_P4E.1_K4.1_C4.1_H4.1_A4.1_[T5G]_[A6T]_F4.1_[A9G]_T4.1 (ssRNA)
RNA: UUUGAUUAAUAUGAUAUCGUUCUUUCUUGUAGUUUGUUCUUUCUCGAUAUCAUAUUAAUCUUU
Kd: 95.3 nM

B22: Ic_S2_P4E.1_K4.1_C4.1_H4.1_A4.1_[T5C]_[A6G]_[T7C]_F4.1_[A9C]_T4.1 (ssRNA)
RNA: UUUGAUUAAUAUGAUAUCGUUCUUUCUUGUACGCUCUUCUUUCUCGAUAUCAUAUUAAUCUUU
Kd: 28.3 nM

B23: Ic_S2_P4E.1_K4.1_C4.1_H4.1_A4.1_[T5C]_[A6G]_[T7G]_F4.1_[T8C]_[A9C]_T4.1 (ssRNA)
RNA: UUUGAUUAAUAUGAUAUCGUUCUUUCUUGUACGGCCUUCUUUCUCGAUAUCAUAUUAAUCUUU
Kd: 830 nM

B24: Ic_S2_P4E.1_K4.1_C4.1_H4.1_A4.1_[T5C]_[A6C]_[T7C]_F4.1_[A9T]_T4.1 (ssRNA)
RNA: UUUGAUUAAUAUGAUAUCGUUCUUUCUUGUACCCUUUUCUUUCUCGAUAUCAUAUUAAUCUUU
Kd: 14.4 nM

B25: Ic_S2_P4E.1_K4.1_C4.1_H4.1_A4.1_[T5C]_[A6G]_[T7A]_F4.1_[T8C]_T4.1 (ssRNA)
RNA: UUUGAUUAAUAUGAUAUCGUUCUUUCUUGUACGACAUUCUUUCUCGAUAUCAUAUUAAUCUUU
Kd: 407 nM

B26: Ic_S2_P4E.1_K4.1_C4.1_H4.1_A4.1_[T5C]_[A6C]_[T7A]_F4.1_[T8A]_[A9C]_T4.1 (ssRNA)
RNA: UUUGAUUAAUAUGAUAUCGUUCUUUCUUGUACCAACUUCUUUCUCGAUAUCAUAUUAAUCUUU
Kd: 712 nM

B27: Ic_S2_P4E.1_K4.1_C4.1_H4.1_A4.1_[T5C]_[A6C]_[T7C]_F4.1_[T8G]_[A9C]_T4.1 (ssRNA)
RNA: UUUGAUUAAUAUGAUAUCGUUCUUUCUUGUACCCGCUUCUUUCUCGAUAUCAUAUUAAUCUUU
Kd: 1580 nM

B28: Ic_S2_P4E.1_K4.1_C4.1_H4.1_A4.1_[T5C]_[A6G]_[T7C]_F4.1_[A9G]_T4.1 (ssRNA)
RNA: UUUGAUUAAUAUGAUAUCGUUCUUUCUUGUACGCUGUUCUUUCUCGAUAUCAUAUUAAUCUUU
Kd: 31.1 nM

B29: Ic_S2_P4E.1_K4.1_C4.1_H4.1_A4.1_[T5G]_[A6T]_F4.1_[T8A]_[A9T]_T4.1 (ssRNA)
RNA: UUUGAUUAAUAUGAUAUCGUUCUUUCUUGUAGUUAUUUCUUUCUCGAUAUCAUAUUAAUCUUU
Kd: 148 nM

B30: Ic_S2_P4E.1_K4.1_C4.1_H4.1_A4.1_[T5C]_[A6C]_[T7C]_F4.1_[A9G]_T4.1 (ssRNA)
RNA: UUUGAUUAAUAUGAUAUCGUUCUUUCUUGUACCCUGUUCUUUCUCGAUAUCAUAUUAAUCUUU
Kd: 20.2 nM

B31: Ic_S2_P4E.1_K4.1_C4.1_H4.1_A4.1_[T5G]_[A6T]_F4.1_[T8C]_[A9C]_T4.1 (ssRNA)
RNA: UUUGAUUAAUAUGAUAUCGUUCUUUCUUGUAGUUCCUUCUUUCUCGAUAUCAUAUUAAUCUUU
Kd: 257 nM

B32: Ic_S2_P4E.1_K4.1_C4.1_H4.1_A4.1_[T5C]_[A6G]_[T7C]_F4.1_[T8G]_[A9C]_T4.1 (ssRNA)
RNA: UUUGAUUAAUAUGAUAUCGUUCUUUCUUGUACGCGCUUCUUUCUCGAUAUCAUAUUAAUCUUU
Kd: 573 nM

B33: Ic_S2_P4E.1_K4.1_C4.1_H4.1_A4.1_[T5C]_[A6G]_[T7C]_F4.1_[T8C]_[A9G]_T4.1 (ssRNA)
RNA: UUUGAUUAAUAUGAUAUCGUUCUUUCUUGUACGCCGUUCUUUCUCGAUAUCAUAUUAAUCUUU
Kd: 501 nM

B34: Ic_S2_P4E.1_K4.1_C4.1_H4.1_A4.1_[T5G]_[A6T]_F4.1_[T8C]_[A9G]_T4.1 (ssRNA)
RNA: UUUGAUUAAUAUGAUAUCGUUCUUUCUUGUAGUUCGUUCUUUCUCGAUAUCAUAUUAAUCUUU
Kd: 550 nM

B35: Ic_S2_P4E.1_K4.1_C4.1_H4.1_A4.1_[T5C]_[A6C]_[T7A]_F4.1_[T8G]_[A9T]_T4.1 (ssRNA)
RNA: UUUGAUUAAUAUGAUAUCGUUCUUUCUUGUACCAGUUUCUUUCUCGAUAUCAUAUUAAUCUUU
Kd: 171 nM

B36: Ic_S2_P4E.1_K4.1_C4.1_H4.1_A4.1_[T5C]_[A6G]_[T7G]_F4.1_[A9T]_T4.1 (ssRNA)
RNA: UUUGAUUAAUAUGAUAUCGUUCUUUCUUGUACGGUUUUCUUUCUCGAUAUCAUAUUAAUCUUU
Kd: 109 nM

B37: Ic_S2_P4E.1_K4.1_C4.1_H4.1_A4.1_[T5G]_[A6T]_F4.1_[T8G]_[A9C]_T4.1 (ssRNA)
RNA: UUUGAUUAAUAUGAUAUCGUUCUUUCUUGUAGUUGCUUCUUUCUCGAUAUCAUAUUAAUCUUU
Kd: 588 nM

B38: Ic_S2_P4E.1_K4.1_C4.1_H4.1_A4.1_[T5C]_[A6C]_[T7A]_F4.1_[T8A]_[A9T]_T4.1 (ssRNA)
RNA: UUUGAUUAAUAUGAUAUCGUUCUUUCUUGUACCAAUUUCUUUCUCGAUAUCAUAUUAAUCUUU
Kd: 20.6 nM

B39: Ic_S2_P4E.1_K4.1_C4.1_H4.1_A4.1_[T5C]_[A6C]_[T7C]_F4.1_[A9C]_T4.1 (ssRNA)
RNA: UUUGAUUAAUAUGAUAUCGUUCUUUCUUGUACCCUCUUCUUUCUCGAUAUCAUAUUAAUCUUU
Kd: 24.5 nM

B40: Ic_S2_P4E.1_K4.1_C4.1_H4.1_A4.1_[T5C]_[A6C]_[T7A]_F4.1_[T8C]_[A9G]_T4.1 (ssRNA)
RNA: UUUGAUUAAUAUGAUAUCGUUCUUUCUUGUACCACGUUCUUUCUCGAUAUCAUAUUAAUCUUU
Kd: 271 nM

B41: Ic_S2_P4E.1_K4.1_C4.1_H4.1_A4.1_[T5C]_[A6G]_F4.1_[T8C]_T4.1 (ssRNA)
RNA: UUUGAUUAAUAUGAUAUCGUUCUUUCUUGUACGUCAUUCUUUCUCGAUAUCAUAUUAAUCUUU
Kd: 117 nM

B42: Ic_S2_P4E.1_K4.1_C4.1_H4.1_A4.1_[T5C]_[A6C]_[T7A]_F4.1_[A9G]_T4.1 (ssRNA)
RNA: UUUGAUUAAUAUGAUAUCGUUCUUUCUUGUACCAUGUUCUUUCUCGAUAUCAUAUUAAUCUUU
Kd: 3.21 nM

B43: Ic_S2_P4E.1_K4.1_C4.1_H4.1_A4.1_[T5C]_[A6G]_F4.1_[A9G]_T4.1 (ssRNA)
RNA: UUUGAUUAAUAUGAUAUCGUUCUUUCUUGUACGUUGUUCUUUCUCGAUAUCAUAUUAAUCUUU
Kd: 28.9 nM

B44: Ic_S2_P4E.1_K4.1_C4.1_H4.1_A4.1_[T5C]_[A6C]_[T7C]_F4.1_[T8C]_[A9T]_T4.1 (ssRNA)
RNA: UUUGAUUAAUAUGAUAUCGUUCUUUCUUGUACCCCUUUCUUUCUCGAUAUCAUAUUAAUCUUU
Kd: 96.8 nM
